How the values were obtained:
[1] = system: beta-2-microglobulin gene; assay: CRISPR/Cas9-mediated deletion of B2M in LSCs by nucleofection, FACS analysis; type: cell-based, human; details: Cas9 protein (SEQ ID NO: 107):sgRNA 1:10 nucleofection, LSCs passage 0, FACS
Procedure: The sgRNA ID SEQ NO 120 was tested for the ability to reduce or eliminate expression of B2M in LSCs using a nucleofection approach as follows.
LSCs at passage 0 were trypsinized with TryLE™Express Enzym (ThermoFisher, Cat #12605010) for 15 min in 5% CO2 at 37° C. After scraping the cells, the reaction was stopped by using cell culture medium containing 10% Serum and transferred to a falcon tube. After counting cells using Vi-cell 200′000 cells were prepared per reaction by transferring 200′000 cells in single tubes and centrifuged at 1000 rpm for 5 min.
The supernatant was aspirated using manually pipetting to avoid cell loss and the cells were resuspended in the Stem cell nucleofector solution II (Lonza, Cat #VPH-5022). Resuspend cells in nucleofector solution immediately before adding the Cas9 protein:sgRNA mixture. A stock of 100 μM (3.23 μg/μl) was prepared resuspending 5.1 nanomoles of single-guideRNA (sgRNA) in 51 μl 10 mM Tris buffer pH7.4. […]
In order to prevent cells sticking to the wall, collection tubes were filled with FACS buffer for 30 minutes before the sort and aspirated before adding the collection medium. […] FACS data were analyzed using BD FACSDiva software and FlowJo software.

CD8+ T-cells = assay: LSC/T-cell reaction assay (gene edited LSCs co-cultured with CD8+ T-cells); type: cell-based, human; details: B2M/HLA-Class I negative edited LSCs co-cultured 10 days with CD8+ T-cells from 4 donors
Procedure: An LSC/T-cell assay was performed in flat bottom 96well synthemax coated plates in duplicates and incubated in 5% CO2 at 37° C. for 10 days. RPMI-1640 supplemented with HEPES (100 μM), non-essential aas (10×), sodium pyruvate (10 mM), 2-Mercapthoethanol (10×), 10% FBS and 1% Penicillin-Streptomycin (Gibco by Life Technologies) was used as medium for co-culture. Alternatively, RPMI-1640 supplemented with HEPES (10 mM), non-essential aas (1×), sodium pyruvate (1 mM), 2-Mercapthoethanol (1×), 10% FBS and 1% Penicillin-Streptomycin (Gibco by Life Technologies) was used as medium for co-culture.
One day before co-culture, LSCs (stimulator cells) were passed and cultured to a confluency of around 70% (30′000-50′000 cells) and cultured with LSC medium including compound. On day two, peripheral blood mononuclear cells (PBMC) were separated using EDTA blood with the Ficoll-Paque method (GE Healthcare Life Sciences, cat #17-1440-03). […]
After 10 days, CD8+ cells were transferred to a U-bottomed 96-well plate and washed 3 times using autoMAC rinsing solution (Miltenyi Biotec, Cat #130-091-222) including MACS BSA stock solution (Miltenyi Biotec, Cat #130-091-376). Cells were measured on a BD LSRFortessa X-20. FACS data were analyzed using BD FACSDiva software and FlowJo software.

[2] = system: genomic DNA purified from male human peripheral blood mononuclear cells; assay: Biochemical method for potential off-target genomic sites cleaved by Cas9 and B2M guides; details: guide concentration of 64 nM
From the text: A biochemical method (See, e.g., Cameron et al., Nature Methods. 6, 600-606; 2017) was used to determine potential off-target genomic sites cleaved by Cas9 and selected B2M guides.

[3] = system: potential off-target sites; assay: Off-target activity detection in limbal stem cells by targeted PCR and NGS; type: cell-based, human; details: edited LSCs vs non-edited PBMCs; positive sites of sequenced loci
Procedure: Potential CRISPR/Cas9-mediated cutting sites identified above were evaluated using targeted PCR and NGS in genome-edited expanded LSCs.
Selected sgRNAs (SEQ ID NO: 120, 162, 166, 167, 171, and 175) were further analyzed by amplicon sequencing in edited and non-edited cells. Primers flanking the potential off-target sites for each guide were used to detect indels by NGS analysis in edited LSCs and non-edited peripheral blood mononuclear cells. Sites that had either (1) a difference in mean indel percentage between edited and unedited cells greater than 0.5%; or (2) a p value less than 0.05 between edited and unedited indel were further analyzed. NGS sequence reads for such sites were assessed for characteristic indel patterns near the putative Cas9 cut site.

B1: 1-CR004366: gRNA targeting B2M (Dharmacon); targeting domain GAGUAGCGCGAGCACAGCUA (SEQ ID NO: 108); sgRNA SEQ ID NO: 120 (nucleic acid)
guide: GAGUAGCGCGAGCACAGCUAGUUUUAGAGCUAGAAAUAGCAAGUUAAAAUAAGGCUAGUCCGUUAUCAACUUGAAAAAGUGGCACCGAGUCGGUGCUUUU
modifications: listed as RNA, chemistry not given here
LSCs with deletion of B2M and elimination of HLA A, B and C (cells not expressing B2M) [1]: about 70% | T-cell immunoresponse (CD8+ T-cells): almost completely eliminated | off-target Site_Count [2]: 69 | Number of sites positive for off-target activity in LSCs [3]: zero

Source: patent US20200131474A1, “METHODS AND COMPOSITIONS FOR OCULAR CELL THERAPY” (Novartis AG, priority 2018, published 2020)
